Results reported in the supplement of paper PMC12042874.
± gives the uncertainty stated by the source.

Test: amyloid nucleation score (Sup35N fusion, yeast selection) (log enrichment); library NNK2; higher = more nucleation; inactive = no reads after selection
Outline: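 The nucleation score, computed with DiMSum, is the log enrichment of output over input reads, centred on the mode score of non-aggregating sequences. Sequences with under 100 input reads were dropped. Reads were generated by Illumina sequencing of plasmid inserts from psi-negative yeast with Sup35N fused to peptides of 20 random codons, induced with 100 μM copper sulfate for 24 hours and grown 7 days at 30°C on medium lacking adenine and uracil.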

Row | Substance | amyloid nucleation score
1 | GIYVEEWGHSVPALRWIDKS | 0.309 ± 0.8
2 | GKCFIWCSMGIWLGVCDQSA | 3.59 ± 0.089
3 | GKGANARLCIRYDITAVEGT | 1.61 ± 0.44
4 | GKLRLLWKGITCVRAFANKL | -0.976 ± 0.34
5 | GKRYCWSLAVNRGFTDTLGV | 0.261 ± 0.46
6 | GKTYLDKLMGGLHRQDPGTR | 1.28 ± 0.53
7 | GLCKTVSWRNSSLEKDLFGR | -0.813 ± 0.78
8 | GLCSIYNWYLVFQVIRTLSW | 2.41 ± 0.14
9 | GLERNRFGRQCLGWLLWNEA | 0.065 ± 1.1
10 | GLFGGIHFVANLGTPPCLDE | 1.56 ± 0.31
11 | GLFRWYNMDNYVQI | -0.604 ± 0.76
12 | GLFWVCAGGGKVGEYRYSGV | 0.021 ± 0.39
13 | GLGGTTFI | -1.04 ± 0.43
14 | GLGVSTKRLYFTMMADCFNG | 0.131 ± 0.49
15 | GLHEVR | 0.042 ± 0.65
16 | GLKMLFNVNLQDM | -0.368 ± 1
17 | GLKTMLY | -0.227 ± 0.27
18 | GLLAPLSSCLCVRDFVGLKA | -0.187 ± 0.3
19 | GLNIGVCLIMHEDRTNSGGK | 8.011 ± 0.032
20 | GLRQVGA | -0.34 ± 0.79
21 | GLRTK | 0.622 ± 0.41
22 | GLRYIS | -0.102 ± 0.5

Row | Substance | amyloid nucleation score
23 | GLSGMEGKLS | -0.398 ± 0.63
24 | GLYHFRVITASKSQMEGFLM | -0.018 ± 1.1
25 | GMIVVTSGNSR | -0.037 ± 0.42
26 | GMSRYMHSIYD | 1 ± 0.41
27 | GMSTRQFKLLPGCREVMRAG | 0.571 ± 0.64
28 | GMYNLSSGYRCERVGVAENI | -0.513 ± 0.3
29 | GNIAVYNDAILLVWDNESRT | -0.714 ± 1
30 | GNLGSHYALGPLDRATRGER | 0.632 ± 0.26
31 | GNSYNVKTYTNLVGIIMDKA | inactive
32 | GNVLFAFTFSVCLKFLAFVF | -0.407 ± 0.64
33 | GNYPPTFACNSN | inactive
34 | GPDSLLGFMSAHNWSAKVYP | 0.209 ± 0.44
35 | GPLFPNFKSLGGEYRRH | 0.325 ± 0.42
36 | GQLSVVKCRSY | 1.14 ± 0.29
37 | GQNRKLLDLIYRMLGSLLWH | 0.309 ± 0.8
38 | GREPESF | 1.72 ± 0.13
39 | GRFIHKIVLNDGV | 0.084 ± 0.56
40 | GRIILTLFNYYT | 6.878 ± 0.062
41 | GRILNAEVFGVINASDNCAD | -0.412 ± 0.63
42 | GRLSISDYIY | 1.02 ± 0.61
43 | GRMWEMACFLATNMLGKSDS | 0.959 ± 0.29
44 | GRPVMMEMPII | 0.512 ± 0.42

Row | Substance | amyloid nucleation score
45 | GRRLSGILRRDGGANGCHRR | 0.098 ± 0.42
46 | GRSGFYCIHKMSVDTFIQKA | 4.27 ± 0.074
47 | GRTSDFKLWIGVCLLGSSYV | 1.89 ± 0.2
48 | GRVKTYTVGFVNIIHFSWLG | 3.57 ± 0.053
49 | GSAHTCSTS | 0.077 ± 0.3
50 | GSCSEHTKLLI | -0.455 ± 0.37
51 | GSEECTLTDCRGSRQDILKR | 0.078 ± 0.77
52 | GSKGIRRYCLTIFVSPVQSA | 0.895 ± 0.81
53 | GSKSCRDYNIKFIYDRYFMG | inactive
54 | GSLVQNVFTMDGGDYHMR | 0.307 ± 0.27
55 | GSMSTSASVRPFWRYVFLH | inactive
56 | GSSVDNACQSDLPVQVSMKF | -0.478 ± 0.64
57 | GSSYNGNTRLTHVGRSVSVR | -0.632 ± 0.63
58 | GSTVKYWCMPGSSLLLHCVY | 0.611 ± 0.66
59 | GSWFPFWLSASMHGSCIYTR | -0.576 ± 0.44
60 | GSWLCCSLRWSSSALGVGWA | 1.12 ± 0.39
61 | GSWLFREVMPA | -0.51 ± 0.44
62 | GSYHFHASNTD | -0.555 ± 0.79
63 | GSYKSGSSSA | 2.57 ± 0.1
64 | GSYLA | 0.697 ± 0.47
65 | GSYVTAISAHFVGKLCASRI | 0.343 ± 0.8
66 | GTARDGRYSSMKVSDRYFVR | inactive

Row | Substance | amyloid nucleation score
67 | GTFSCGSGEI | 0.534 ± 0.8
68 | GTMDITYTY | 2.44 ± 0.11
69 | GTMQFIVICNSDVFVSWLPN | 7.253 ± 0.071
70 | GTRLNYFNWIICGGETGCAA | -0.171 ± 1
71 | GTSCSMGPAWGLSCYGTFVD | -0.288 ± 0.55
72 | GTSDSWTNVGRHYLKGVRDG | -1.08 ± 0.55
73 | GTSFVKFEK | -0.186 ± 0.23
74 | GTSHWWIGMRFSEADLLLDW | 0.656 ± 0.41
75 | GTSRLNVEGGLYCRGSIVDV | -0.299 ± 0.37
76 | GTTCGSSCRVVSLMKENVGA | -0.367 ± 0.48
77 | GTWMWETFCRLTFVFGIRRG | -0.264 ± 0.54
78 | GVDKGSVYG | inactive
79 | GVENKDRVSPNYVG | -0.424 ± 0.49
80 | GVFSLRKGGCRDW | -0.567 ± 1.1
81 | GVGRWIQCQDSWNTNRPSQP | 1.52 ± 0.27
82 | GVKFQAAEAGPPGTYGTLGS | -0.031 ± 0.63
83 | GVKRLVTGVCNKYRDIFFVG | -0.22 ± 1
84 | GVMRIHCGDREC | 0.8 ± 0.54
85 | GVNRAWL | 3.35 ± 0.06
86 | GVPIGKKYRTSVCENMEGSW | -0.627 ± 0.31
87 | GVQYRSGESGDSASYWRLGG | 0.628 ± 0.38
88 | GVRDVIQL | 2.05 ± 0.26
